This passage reports amyloid nucleation score results from the supplement of paper PMC12042874.

± gives the uncertainty stated by the source.

A short description of this data set: amyloid nucleation score (Sup35N fusion, yeast selection) (log enrichment); library NNK3; higher = more nucleation; inactive = no reads after selection. An outline of the steps:
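The nucleation score is a DiMSum log enrichment of output over input reads, centred on the mode score of non-aggregating sequences. Sequences under 100 input reads were excluded, and reads came from Illumina sequencing of plasmid inserts. Psi-negative yeast expressing Sup35N fused to peptides of 20 random codons were induced with 100 μM copper sulfate for 24 hours and grown 7 days at 30°C on medium lacking adenine and uracil. Random libraries had three technical output replicates.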

As for DLSRTSAVSVRKRVCVFSLH, the amyloid nucleation score result was “inactive”. In the case of AKHGLVDAQRALGISYQKNK it was 0.967 ± 0.11; in that of CNTGPEIMASVAKVDVWVIK, 1.65 ± 0.11; in that of HRKSGMVIYFTVPWFMKRNC, “inactive”. In the case of ILMPKTVVTVYISNMCDYSQ it was 2.58 ± 0.071; in that of RCYVCRTMRACMVLAAKLEP, “inactive”; in that of GGLHSGVGKMAYELNMYS, “inactive”. Take GRALNWTG: the amyloid nucleation score entry was “inactive”. As to CEVHEGWIA, the amyloid nucleation score result was “inactive”. For STVKVSLYQNQYPNGFNS, the amyloid nucleation score was determined as 1.66 ± 0.089. The same measure for SLPGSKYKAFH: “inactive”; for GRGSKLVCVR: 2.63 ± 0.071; for FLLSCK: “inactive”. As to ESTGMPTALYSLAVTVRVDK, the amyloid nucleation score is 0.016 ± 0.33. In the case of LSTQNRISASREMMDTDILG it was 0.8 ± 0.13; in that of DNSFSPLASGLYQLKGVELI, “inactive”. In the case of ISGIHITSELRRGTPERCSH it was “inactive”; in that of VTSESSSMGLTLSF, “inactive”; in that of VHGPKNCWKCDFKER, “inactive”. In the case of VYGVTSHCTVRRELWAGSIM it was “inactive”; in that of YVAVGKKLNHRSSSSLSRFF, “inactive”. With DCGATSLKTMASGLRMKRTS, the amyloid nucleation score result is “inactive”. The same measure for YSCLLIYVKYGMASIYGRMF: “inactive”.

In the case of GSMVVEFMYYHPTPTRGAWA, the amyloid nucleation score is 0.8 ± 0.17. In the case of TDPFLTCK it was “inactive”; in that of RMYRGWLVPDAARSKGCRVM, “inactive”. In the case of IMICILHLC it was “inactive”; in that of PKCSIGKSLLVGRLMDVRAV, “inactive”. The same measure for RYDMRVVSRNQLKYWTMGRE: -0.646 ± 1.1; for FNVVMSRYIYYCVMGVIRMS: “inactive”; for ELFDERQRLEPI: “inactive”.

With SSVSFQLEVCNQNVLYGIKI, the amyloid nucleation score entry was “inactive”. The same measure for LMLNGHAVHMSSNSEALVIC: “inactive”. In the case of YYVTQGVRVGQYLTNRERDE it was -0.195 ± 0.44. As for PLSVAFYGVTIR, the amyloid nucleation score amounted to 0.056 ± 0.19.

For TFLVALSYFVSLGYGSSQSM, the amyloid nucleation score result is “inactive”. In the case of SFSSFVFTMEALASAVSTHH it was “inactive”. The same measure for GSRRWFEFFVPWLQLD: “inactive”. In the case of MCPPVSGNG it was “inactive”. As to QFSRWI, the amyloid nucleation score entry is “inactive”. In the case of GYDGRGSHAL it was “inactive”; in that of ARCECESSTRVSSLVYLSRE, “inactive”.

For DHHLEEYRL, the amyloid nucleation score result was “inactive”. Take LRGDGLMIVIVVWCIYGYLC: the amyloid nucleation score entry is “inactive”. The same measure for IYRTPSADDLSRDAYIGFYR: “inactive”; for NRLNIFIYSFNVAVVSI: 2.31 ± 0.082; for FIVSPPSNGANVY: “inactive”. In the case of LQRYRPADMRVGASSSGNTK it was 0.121 ± 1; in that of YSGWTPKLAVH, “inactive”.

Take RLIILNVFVSDNTNWLHRIH: the amyloid nucleation score was found to be 1.37 ± 0.083.

As for HVFSITLAVGTYLLTRLYSQ, the amyloid nucleation score amounted to 1.07 ± 0.1. In the case of AVISKDCDSYAIYHHVFHST it was “inactive”. As to DTMNLRWSVWRRHVWCLTGE, the amyloid nucleation score entry is “inactive”. In the case of MMNGVGAWASFGLLNNYGGN it was 0.291 ± 0.29; in that of FFFLLKMRHKPSASANLNSN, “inactive”. In the case of GRSSMFRINNQMLCWVSIPC, the amyloid nucleation score result was “inactive”. The same measure for KQKMYTAVPKGIQNILEA: “inactive”. In the case of PVVTVGYLDRMFISFLFSRI it was “inactive”. The same measure for FDLEMSSGFPTIELWMR: “inactive”; for SLGTIMFVCGGPRGHLCSVR: -0.414 ± 1.4; for IDLNMQMELHGWHRVCWGCY: 0.657 ± 0.22. VHSPWVNNLYQCWTYYFLLL displayed an amyloid nucleation score of 0.162 ± 0.88.

Take GHWTLDYEFKYPYGQQYHVP: the amyloid nucleation score result was “inactive”. In the case of KTLIRASWSLSC it was “inactive”.

For QYCSSCLLWCMKSQGLDMTR, the amyloid nucleation score result was “inactive”.

Consider CWLAAFSFRRSVLSCQGGQG, for which the amyloid nucleation score result was “inactive”. The same measure for RLFFVSMAF: “inactive”; for ISLFGIMWIRLLHLRHESKA: “inactive”. In the case of KTSVEISN, the amyloid nucleation score result is “inactive”. The same measure for TCYFVYTRFFWGDRESKSTF: “inactive”; for LLCGSCWFYTMGHVSPNKRI: 0.862 ± 0.11; for RKASSVFILGFVWWDHFEIL: “inactive”.

RLMYKMMHVSGDEECLFVMV: the amyloid nucleation score entry was “inactive”. In the case of SVYFFQGTL it was 1.29 ± 0.084. In the case of SIFMCNIVLFKRVVLPRGAS it was 0.886 ± 0.18; in that of IFNMSEYNKLECTLTLY, “inactive”. LYFRLPNASAVDIIEIGFPV registered an amyloid nucleation score of 0.039 ± 0.55. The same measure for YLIEYTSSNKPMAPLSDDTQ: “inactive”; for RPFGLAVTRWAPSFAGSRTS: “inactive”. The same measure for DRAMFYDALDNARVISKLRG: “inactive”. The same measure for HVPGRIWDVFTRLLNEVLTN: “inactive”; for IDLFRSFSLAVLVVYMSEDW: “inactive”. Consider HLGKPKEFMTIAGGLHCLML, for which the amyloid nucleation score entry is “inactive”. The same measure for MFLRVSTTINAYFLRVRSLI: “inactive”; for LGHGFWQFSYLG: “inactive”; for STVTDTYRLDTWTTWETDRG: 1.98 ± 0.095. In the case of LLVRMILNYKELLVTAILQV it was “inactive”. Take RYLITVAIPLSIGVLSTV: the amyloid nucleation score entry is “inactive”. The same measure for ALVLNLDRVWVSLTDGPWSD: “inactive”; for CAYRLNVGSVRFGKMHPRRS: “inactive”; for VRLRDLN: “inactive”. In the case of WTRVFLRTKGRSEFLLRWPL, the amyloid nucleation score result was “inactive”. The same measure for YFRSLGLAIGCNR: “inactive”; for DFWRYDSS: “inactive”; for HFVKVE: “inactive”. On to CECVGFRSRYM, for which the amyloid nucleation score is 0.038 ± 0.3. The same measure for RAIGLGAFGIRRGGTRKWNE: -1.06 ± 2.5.
